Laboratory results: PMC6742648

Target: stabilized pre-fusion RSV F glycoprotein (DS-Cav1) (respiratory syncytial virus (strain not stated)) (UniProt P03420)
Assay: crystal structure; RB1 Fab with DS-Cav1, complex purified by SEC; crystals in 100 mM Tris pH 8.5, 12% PEG 8000, 200 mM ammonium sulfate; 3.4 A

Substance “stabilized pre-fusion RSV F glycoprotein (DS-Cav1) (from UniProt P03420 137-513) (natural protein)” has a stoichiometry N of 3.
